For 2 substances, Kd results are on record in article PMC10697138.

Assay [1] addresses hIL-4Rα–hIL-13Rα1 complex (human type II IL-4 receptor) (human) (UniProt P78552).
In assay [2] the target is IL-4Rα (Homo sapiens) (UniProt P24394). The following applies: cited from earlier work.
UniProt P24394, sequence (P24394 26-232): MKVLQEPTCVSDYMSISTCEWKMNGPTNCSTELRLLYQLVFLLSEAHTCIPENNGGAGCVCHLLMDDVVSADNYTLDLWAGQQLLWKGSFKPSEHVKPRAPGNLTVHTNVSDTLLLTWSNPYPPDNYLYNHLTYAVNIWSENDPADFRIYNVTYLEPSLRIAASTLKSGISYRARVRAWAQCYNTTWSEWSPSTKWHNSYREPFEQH

UniProt P78552, sequence (P78552 22-343, chain 1 of 2): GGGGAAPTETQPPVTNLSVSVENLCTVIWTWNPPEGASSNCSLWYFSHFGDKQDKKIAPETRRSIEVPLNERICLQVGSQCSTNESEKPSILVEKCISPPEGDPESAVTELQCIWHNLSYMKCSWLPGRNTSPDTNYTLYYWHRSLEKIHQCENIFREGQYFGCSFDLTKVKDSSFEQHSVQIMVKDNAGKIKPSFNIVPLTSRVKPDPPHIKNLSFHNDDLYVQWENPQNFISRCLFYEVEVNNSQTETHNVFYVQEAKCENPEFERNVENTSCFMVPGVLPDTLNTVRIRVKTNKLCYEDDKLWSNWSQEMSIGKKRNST
UniProt P78552, sequence (P24394 26-232, chain 2 of 2, further chain): as the sequence (P24394 26-232) above

What is called Kd is the free concentration of one partner at which half of the binding sites on the other are occupied at equilibrium, for simple one-to-one binding. In assay [1], “human interleukin-4 (hIL-4) (from UniProt P05112 25-153) (ligand)” had a Kd of 0.101 µM.
On to IL-4 (from UniProt P05112), for which the Kd in assay [2] was less than 0.001 µM.
